Test [1] addresses recombinant enovin (mature Enovin with NH2-terminal 6x His-tag, expressed from hEVNmat/pRSETB in E. coli BL21(DE3), refolded) (human). Kind of test: SPR (BIAcore 3000, 25 °C), enovin immobilised, soluble GFRα3-Fc as analyte, three concentrations. Background: In SPR one partner is held on a chip, and binding of the other changes the refractive index at the surface.
The target is the same in test [2]. Kind of test: SPR (BIAcore 3000, 25 °C), enovin immobilised, soluble GFRα3-Fc as analyte; KD calculated as kd/ka.

B1: soluble GFRα-3 IgG-Fc fusion protein (GFRα-3 amino acids 28 to 371 fused to human IgG1-Fc) (Fc fusion, UniProt O60609 28-371, looked up, not shown: a dimerising Fc or GST)
chain: LAAGDPLPTESRLMNSCLQARRKCQADPTCSAAYHHLDSCTSSISTPLPSEEPSVPADCLEAAQQLRNSSLIGCMCHRRMKNQVACLDIYWTVHRARSLGNYELDVSPYEDTVTSKPWKMNLSKLNMLKPDSDLCLKFAMLCTLNDKCDRLRKAYGEACSGPHCQRHVCLRQLLTFFEKAAEPHAQGLLLCPCAPNDRGCGERRRNTIAPNCALPPVAPNCLELRRLCFSDPLCRSRLVDFQTHCHPMDILGTCATEQSRCLRAYLGLIGTAMTPNFVSNVNTSVALSCTCRGSGNLQEECEMLEGFFSHNPCLTEAIAAKMRFHSQLFSQDWPHPTFAVMAHQ
Regarding B1, in test [1], the koff worked out at 0.000508 s⁻¹ and the kon was found to be 165000 M⁻¹ s⁻¹. In addition, the equilibrium dissociation constant (Kd) in test [2] was 3.1 nM.

A word on the koff: it is a measure of how fast the partners let go of each other. Broadly, the kon is the second-order rate constant of association. As usually defined, the Kd is the equilibrium constant for the complex coming apart.

These data come from patent US7067473.
